Experiment [1] addresses T1, CD28 on the surface of Human T cells (human, UniProt P10747 19-220).
T1 construct: whole, on cells; also called CD28 on T cells; all T cells
The experiment can be described thus: flow cytometry, human CD8+ T cells; CD8+ T cells. For orientation: In flow cytometry, cells or beads pass a laser one at a time.

Experiment [2] has as its target full-length human CD28 (hCD28, amino acids M1 to S220, accession #P10747) on engineered reporter T-cells (human, UniProt P10747 19-220). The experiment can be described thus: cell-based or functional assay.
Experiment [3] has as its target T2, 6h.hPSMA (recombinant Human PSMA/FOLH1 Protein, R&D, Catalog #4234-ZN) (human, UniProt Q04609 44-750).
T2 construct: Bought protein; also called hPSMA with an N-terminal polyhistidine tag; hPSMA.6H; not shown: N-terminal polyhistidine tag (6h)
The experiment can be described thus: SPR, Biacore T-200, antibody captured by anti-human Fc, 6h.hPSMA injected, 25°C. The procedure:
(§1) The different concentrations of 6h.hPSMA were injected over the monoclonal antibody captured surface at a flow rate of 50 μL/minute. Association of 6h.hPSMA to the captured monoclonal antibody was monitored for 3 minutes and the dissociation of 6h.hPSMA in HBS-P++ running buffer was monitored for 10 minutes. Kinetic association (kₐ) and dissociation (kd) rate constants were determined by fitting the real-time sensorgrams to a 1:1 binding model using Scrubber 2.0c curve fitting software (BioLogic Software). Binding dissociation equilibrium constants (KD) and dissociative half-lives (t1/2) were calculated from the kinetic rate constants as: KD(M)=kd/kₐ, and t1/2 (min)=0.693/kd/60
Background: Surface plasmon resonance follows binding to a sensor surface in real time, without labels.

Experiment [4] concerns the target T2, 6h.hPSMA (recombinant Human PSMA/FOLH1 …). Nature of the experiment: SPR, Biacore, captured antibody, hPSMA.6H (block headed 20 nM), 37°C.
For experiment [5] the target is unchanged. Nature of the experiment: SPR, Biacore, captured antibody, hPSMA.6H (block headed 20 nM), 37°C; 20 nM hPSMA.6H block, 37 C.
Experiment [6] has as its target T3, PSMA on the surface of cell lines expressing PSMA (C4-2, 22RV1) (human, UniProt Q04609 1-750).
T3 construct: whole, on cells; also called C4-2 cells; 22RV1 cells
The experiment can be described thus: flow cytometry, 22RV1 cells expressing PSMA.

In experiment [7] the target is T2, 6h.hPSMA (recombinant Human PSMA/FOLH1 …). The experiment can be described thus: SPR, Biacore, captured antibody, hPSMA.6H (block headed 10 nM), 37°C.
Experiment [8] has as its target T1, CD28 on the surface of Human T cells. The experiment can be described thus: flow cytometry, human T cells (all T cells); all T cells.
The target is the same in experiment [9]. Nature of the experiment: flow cytometry, human CD4+ T cells; CD4+ T cells.
Experiment [10] deals with T4, hCD28.mmh (human, UniProt P10747 19-152).
T4 construct: also called hCD28.6H; not shown: neither explained nor printed
Nature of the experiment: SPR, Biacore, captured antibody, soluble hCD28 injected, 37°C.

The target in experiment [11] is T3, PSMA on the surface of cell lines …. The experiment can be described thus: flow cytometry, C4-2 cells expressing PSMA.
For experiment [12], the target named is T4, hCD28.mmh. Nature of the experiment: SPR, Biacore T-200, antibody captured by anti-human Fc, hCD28.mmh injected, 25°C. How it is done: as §1, with “Different concentrations” for “The different concentrations”, “of hCD28.mmh” for “of 6h.hPSMA”, “for 5” for “for 3”, “fitting software.” for “fitting software (BioLogic Software).”

T2 sequence (Q04609 44-750 limits assumed): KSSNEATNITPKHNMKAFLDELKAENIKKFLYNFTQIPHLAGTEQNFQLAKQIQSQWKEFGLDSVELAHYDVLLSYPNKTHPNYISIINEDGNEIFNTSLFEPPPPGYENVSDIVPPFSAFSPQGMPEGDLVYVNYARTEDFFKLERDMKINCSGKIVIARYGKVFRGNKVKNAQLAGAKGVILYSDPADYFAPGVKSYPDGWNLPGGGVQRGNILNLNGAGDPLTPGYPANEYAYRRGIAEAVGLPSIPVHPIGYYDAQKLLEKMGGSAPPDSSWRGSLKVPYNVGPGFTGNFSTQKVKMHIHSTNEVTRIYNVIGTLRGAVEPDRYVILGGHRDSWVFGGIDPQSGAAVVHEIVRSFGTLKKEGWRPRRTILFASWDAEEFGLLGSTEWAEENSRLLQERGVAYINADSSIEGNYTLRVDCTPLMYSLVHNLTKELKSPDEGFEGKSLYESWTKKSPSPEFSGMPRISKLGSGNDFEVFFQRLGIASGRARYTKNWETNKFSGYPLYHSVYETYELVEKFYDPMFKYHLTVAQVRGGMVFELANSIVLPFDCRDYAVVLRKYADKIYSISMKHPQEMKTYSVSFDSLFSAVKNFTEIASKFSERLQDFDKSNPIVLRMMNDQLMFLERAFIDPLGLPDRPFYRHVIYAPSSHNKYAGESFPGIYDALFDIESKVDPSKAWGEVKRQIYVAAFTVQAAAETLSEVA
T3 sequence (Q04609 whole entry): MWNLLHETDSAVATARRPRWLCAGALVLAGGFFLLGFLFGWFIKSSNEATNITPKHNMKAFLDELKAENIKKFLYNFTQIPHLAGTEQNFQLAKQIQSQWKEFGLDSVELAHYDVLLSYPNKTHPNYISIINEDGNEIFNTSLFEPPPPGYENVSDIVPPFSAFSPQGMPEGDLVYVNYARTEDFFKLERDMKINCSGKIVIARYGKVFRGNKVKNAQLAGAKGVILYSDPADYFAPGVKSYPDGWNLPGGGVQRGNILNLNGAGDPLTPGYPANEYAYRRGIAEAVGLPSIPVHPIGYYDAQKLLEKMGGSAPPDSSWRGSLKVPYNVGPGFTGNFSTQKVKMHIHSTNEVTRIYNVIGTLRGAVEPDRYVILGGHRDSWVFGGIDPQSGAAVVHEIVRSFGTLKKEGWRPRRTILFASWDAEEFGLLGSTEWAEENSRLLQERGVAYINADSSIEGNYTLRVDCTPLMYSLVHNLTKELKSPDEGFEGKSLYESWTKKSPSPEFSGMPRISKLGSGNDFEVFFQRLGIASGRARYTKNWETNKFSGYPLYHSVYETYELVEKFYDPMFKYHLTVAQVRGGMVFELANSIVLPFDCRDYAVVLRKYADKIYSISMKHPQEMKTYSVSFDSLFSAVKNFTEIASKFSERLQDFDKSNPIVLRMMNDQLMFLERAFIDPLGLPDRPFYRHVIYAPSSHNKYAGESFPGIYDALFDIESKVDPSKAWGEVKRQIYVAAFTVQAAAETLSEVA

B1: BSPSMA/CD28-001 (bispecific antibody, human IgG4 S228P, kappa)
heavy 1: QVQLVESGGGVVQPGRSLRLSCAASGFTFSSYGMHWVRQAPGKGLEWVAFMSYDGSNKFYSDSVKGRFTISRDNSRKMLFLQMNNLRAEDTAVYYCARDQYYDFLTDHGVFDYWGQGTLVTVSSASTKGPSVFPLAPCSRSTSESTAALGCLVKDYFPEPVTVSWNSGALTSGVHTFPAVLQSSGLYSLSSVVTVPSSSLGTKTYTCNVDHKPSNTKVDKRVESKYGPPCPPCPAPPVAGPSVFLFPPKPKDTLMISRTPEVTCVVVDVSQEDPEVQFNWYVDGVEVHNAKTKPREEQFNSTYRVVSVLTVLHQDWLNGKEYKCKVSNKGLPSSIEKTISKAKGQPREPQVYTLPPSQEEMTKNQVSLTCLVKGFYPSDIAVEWESNGQPENNYKTTPPVLDSDGSFFLYSRLTVDKSRWQEGNVFSCSVMHEALHNHYTQKSLSLSLGK
heavy 2: QVQLQESGPGLVKPSETLSLTCTVSGGSISSYYWSWIRQPPGKGLEWIGYIYYSGITHYNPSLKSRVTISVDTSKIQFSLKLSSVTAADTAVYYCARWGVRRDYYYYGMDVWGQGTTVTVSSASTKGPSVFPLAPCSRSTSESTAALGCLVKDYFPEPVTVSWNSGALTSGVHTFPAVLQSSGLYSLSSVVTVPSSSLGTKTYTCNVDHKPSNTKVDKRVESKYGPPCPPCPAPPVAGPSVFLFPPKPKDTLMISRTPEVTCVVVDVSQEDPEVQFNWYVDGVEVHNAKTKPREEQFNSTYRVVSVLTVLHQDWLNGKEYKCKVSNKGLPSSIEKTISKAKGQPREPQVYTLPPSQEEMTKNQVSLTCLVKGFYPSDIAVEWESNGQPENNYKTTPPVLDSDGSFFLYSRLTVDKSRWQEGNVFSCSVMHEALHNRFTQKSLSLSPGK
light: not shown
notes: also called mAb1; REGN5678
One may read the EC50 as the concentration giving half of the maximal effect. Low values mean greater potency, high ones weaker potency. Usually Kd stands for the constant that tells how readily two partners part at equilibrium. What is called koff is the first-order rate constant of dissociation. The kon is the second-order rate constant of association. Broadly, the t½ is the time needed for the level to fall by half in the phase considered. As for B1, the EC50 in experiment [1] worked out at 58.9 nM; in [6] it was 3.05 nM; in experiment [8], 48 nM; in experiment [9] it was 50.9 nM; in experiment [11] it was 3.87 nM. For the same molecule, the “EC50 [M], luciferase activity in engineered reporter T-cells with HEK293/hCD20/hPSMA, presence of TCR stimulation” value in experiment [2] came out at 1.72e-10 M. Besides, the “Fold induction, luciferase activity in engineered reporter T-cells with HEK293/hCD20, absence of TCR stimulation” value in experiment [2] was 0.81 fold. In [2], the “Fold induction, luciferase activity in engineered reporter T-cells with HEK293/hCD20, presence of TCR stimulation” value came out at 1 fold. In addition, the “Fold induction, luciferase activity in engineered reporter T-cells with HEK293/hCD20/hPSMA, absence of TCR stimulation” value in [2] stood at 1.04 fold. In experiment [2], the “Fold induction, luciferase activity in engineered reporter T-cells with HEK293/hCD20/hPSMA, presence of TCR stimulation” value was found to be 16.1 fold. The Kd in [3] is 0.251 nM; in experiment [4], 0.217 nM; in [7], 0.396 nM; with hCD28.mmh [10], 272 nM; in the experiment with hCD28.mmh [12] it was 144 nM. Also, the “T½” value turned out to be 3.91 h in [3] and 3.5 min in the experiment with hCD28.mmh [12]. Further, the koff amounted to 4.92e-05 s⁻¹ in experiment [3]; 6.36e-05 s⁻¹ in experiment [5]; 7.93e-05 s⁻¹ in experiment [7]; 0.0067 s⁻¹ in the experiment with hCD28.mmh [10]; 0.00326 s⁻¹ with hCD28.mmh [12]. For the same molecule, the kon in experiment [3] turned out to be 196000 M⁻¹ s⁻¹; in experiment [4], 293000 M⁻¹ s⁻¹; in experiment [7], 200000 M⁻¹ s⁻¹; in the experiment with hCD28.mmh [10], 24600 M⁻¹ s⁻¹; with hCD28.mmh [12] it was 22600 M⁻¹ s⁻¹. For the same molecule, the values for the t½ (in experiment [4]; in [7]; with hCD28.mmh [10]) were 3.03 h, 2.43 h and 1.7 min, respectively.

B2: BSPSMA/CD28-002 (bispecific antibody, human IgG4 S228P, kappa)
heavy 1: QVQLVESGGGVVQPGRSLRLSCAASGFTFSSYGMHWVRQAPGKGLEWVAVISYAGNNKYYADSVKGRFTVSRDNSKKTLYLQMNSLRSEDTAVYYCAKDSYYDFLTDPDVLDIWGQGTMVTVSSASTKGPSVFPLAPCSRSTSESTAALGCLVKDYFPEPVTVSWNSGALTSGVHTFPAVLQSSGLYSLSSVVTVPSSSLGTKTYTCNVDHKPSNTKVDKRVESKYGPPCPPCPAPPVAGPSVFLFPPKPKDTLMISRTPEVTCVVVDVSQEDPEVQFNWYVDGVEVHNAKTKPREEQFNSTYRVVSVLTVLHQDWLNGKEYKCKVSNKGLPSSIEKTISKAKGQPREPQVYTLPPSQEEMTKNQVSLTCLVKGFYPSDIAVEWESNGQPENNYKTTPPVLDSDGSFFLYSRLTVDKSRWQEGNVFSCSVMHEALHNHYTQKSLSLSLGK
heavy 2: EVQLVESGGGLVQPGGSLRLSCAASGFTFSTYAMTWVRQAPGKGLEWVSFISGSGDNTYYADSVKGRFTISRDNSKNTLYLQMNSLRADDSAIYHCAKDSGYCSSGGCSLYFYYGMDVWGQGTTVTVSSASTKGPSVFPLAPCSRSTSESTAALGCLVKDYFPEPVTVSWNSGALTSGVHTFPAVLQSSGLYSLSSVVTVPSSSLGTKTYTCNVDHKPSNTKVDKRVESKYGPPCPPCPAPPVAGPSVFLFPPKPKDTLMISRTPEVTCVVVDVSQEDPEVQFNWYVDGVEVHNAKTKPREEQFNSTYRVVSVLTVLHQDWLNGKEYKCKVSNKGLPSSIEKTISKAKGQPREPQVYTLPPSQEEMTKNQVSLTCLVKGFYPSDIAVEWESNGQPENNYKTTPPVLDSDGSFFLYSRLTVDKSRWQEGNVFSCSVMHEALHNRFTQKSLSLSPGK
light: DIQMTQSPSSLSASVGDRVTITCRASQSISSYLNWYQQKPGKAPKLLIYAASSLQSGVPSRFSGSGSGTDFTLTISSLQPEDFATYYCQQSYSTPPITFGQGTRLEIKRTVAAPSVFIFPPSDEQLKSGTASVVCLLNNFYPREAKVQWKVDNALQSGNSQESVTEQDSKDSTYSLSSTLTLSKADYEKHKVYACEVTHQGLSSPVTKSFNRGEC
B2: in [2], the “EC50 [M], luciferase activity in engineered reporter T-cells with HEK293/hCD20/hPSMA, presence of TCR stimulation” value is 4.57e-10 M; the “Fold induction, luciferase activity in engineered reporter T-cells with HEK293/hCD20, absence of TCR stimulation” value came out at 0.87 fold; the “Fold induction, luciferase activity in engineered reporter T-cells with HEK293/hCD20, presence of TCR stimulation” value came out at 0.92 fold; the “Fold induction, luciferase activity in engineered reporter T-cells with HEK293/hCD20/hPSMA, absence of TCR stimulation” value worked out at 0.89 fold. Besides, the “Fold induction, luciferase activity in engineered reporter T-cells with HEK293/hCD20/hPSMA, presence of TCR stimulation” value in experiment [2] stood at 13.6 fold.

B3: BSPSMA/CD28-003 (bispecific antibody, human IgG4 S228P, kappa)
heavy 1: B2 heavy 1
heavy 2: EVQLVESGGGLVQPGGSLRLSCAASGFTFSRNNMHWVRQAPGKGLEYVSGISSNGGRTYYADSVKGRFTISRDNSKNTLYLQMGGLRAADMAVYFCTRDDELLSFDYWGQGTLVTVSSASTKGPSVFPLAPCSRSTSESTAALGCLVKDYFPEPVTVSWNSGALTSGVHTFPAVLQSSGLYSLSSVVTVPSSSLGTKTYTCNVDHKPSNTKVDKRVESKYGPPCPPCPAPPVAGPSVFLFPPKPKDTLMISRTPEVTCVVVDVSQEDPEVQFNWYVDGVEVHNAKTKPREEQFNSTYRVVSVLTVLHQDWLNGKEYKCKVSNKGLPSSIEKTISKAKGQPREPQVYTLPPSQEEMTKNQVSLTCLVKGFYPSDIAVEWESNGQPENNYKTTPPVLDSDGSFFLYSRLTVDKSRWQEGNVFSCSVMHEALHNRFTQKSLSLSPGK
light: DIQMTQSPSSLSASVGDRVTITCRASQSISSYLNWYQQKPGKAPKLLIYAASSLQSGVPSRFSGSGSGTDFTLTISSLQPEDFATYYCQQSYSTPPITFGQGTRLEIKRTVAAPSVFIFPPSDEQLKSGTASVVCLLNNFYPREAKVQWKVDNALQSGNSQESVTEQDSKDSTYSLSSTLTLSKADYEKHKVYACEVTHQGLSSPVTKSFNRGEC
notes: also called anti-PSMAxCD28 bispecific antibody
B3: in [1], a half-maximal response (EC50) required 180 nM. Moreover, in [2], the “EC50 [M], luciferase activity in engineered reporter T-cells with HEK293/hCD20/hPSMA, presence of TCR stimulation” value was 2.78e-10 M; the “Fold induction, luciferase activity in engineered reporter T-cells with HEK293/hCD20, absence of TCR stimulation” value turned out to be 0.94 fold; the “Fold induction, luciferase activity in engineered reporter T-cells with HEK293/hCD20, presence of TCR stimulation” value amounted to 0.95 fold; the “Fold induction, luciferase activity in engineered reporter T-cells with HEK293/hCD20/hPSMA, absence of TCR stimulation” value stood at 0.98 fold. Besides, in experiment [2], the “Fold induction, luciferase activity in engineered reporter T-cells with HEK293/hCD20/hPSMA, presence of TCR stimulation” value worked out at 24.5 fold. In experiment [3], the Kd came out at 0.137 nM, the “T½” value turned out to be 5.01 h, the koff amounted to 3.85e-05 s⁻¹ and the kon was found to be 280000 M⁻¹ s⁻¹. This molecule also came in with an EC50 in experiment [6] of 6.33 nM. The molecule also had a concentration giving a half-maximal response (EC50) in experiment [9] of 167 nM. This molecule gave an EC50 in experiment [11] of 1.5 nM. Besides, in the experiment with hCD28.mmh [12], the dissociation constant (Kd) worked out at 207 nM, the “T½” value was 8.2 min, the koff was determined as 0.00141 s⁻¹ and the kon turned out to be 6790 M⁻¹ s⁻¹.
